The values below come from article PMC3039359.

One data set deals with T1, Rrp47 (Saccharomyces cerevisiae, UniProt P38801 1-184).
T1 sequence: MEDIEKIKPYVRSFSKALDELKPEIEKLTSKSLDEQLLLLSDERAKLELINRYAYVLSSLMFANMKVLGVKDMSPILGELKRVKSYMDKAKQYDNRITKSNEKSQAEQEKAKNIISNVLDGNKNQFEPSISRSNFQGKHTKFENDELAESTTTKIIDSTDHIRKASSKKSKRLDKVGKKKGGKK
Put plainly: filter binding.

In a further data set the target is T2, Rrp47 ΔC (Saccharomyces cerevisiae, UniProt P38801 1-120, del121-184).
T2 sequence: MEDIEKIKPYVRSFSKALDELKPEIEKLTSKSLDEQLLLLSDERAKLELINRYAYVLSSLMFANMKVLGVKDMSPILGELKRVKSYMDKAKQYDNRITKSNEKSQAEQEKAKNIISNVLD
Description: filter binding.

B1: SL-AU RNA (structured_RNA)
RNA: GGGUUUCCUUCUCAAACAUUCUGUUUGGUAGUGAGUAAUUAAAAAUGAAUU
For orientation: Kd means the constant that tells how readily two partners part at equilibrium. A lower Kd goes with higher affinity. Take B1: in the data set with Rrp47, the Kd was around 1000 nM. In addition, in the data set with Rrp47 ΔC, the binding result was “no binding”.
